Source: patent US20190338002A1 (Pieris, published 2019)

T1: rat alpha CGRP (SEQ ID NO: 82) (rat)
T1 construct: also called rat αCGRP; rat α-CGRP
T1 peptide: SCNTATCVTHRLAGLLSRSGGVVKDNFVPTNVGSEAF

T2: human alpha CGRP (SEQ ID NO: 80) (human, not fully specified)
T2 construct: also called human αCGRP; hαCGRP
T2 peptide: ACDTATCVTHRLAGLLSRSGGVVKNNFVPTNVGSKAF

T3: rat beta CGRP (SEQ ID NO: 83) (rat, not fully specified)
T3 construct: also called rat βCGRP; rat β-CGRP
T3 peptide: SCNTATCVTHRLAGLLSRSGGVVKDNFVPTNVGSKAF

T4: human beta CGRP (SEQ ID NO: 81) (human, not fully specified)
T4 construct: also called human βCGRP; hβCGRP
T4 peptide: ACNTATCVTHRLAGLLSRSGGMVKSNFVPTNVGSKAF

B1: lipocalin mutein SEQ ID NO: 7 (designed binder)
chain: QDSTSDLIPAPPLSKVPLQQNFQDNQFHGKWYVVGWAGNTLLREDKDPIKMQATIYELKEDKSYNVTWVYFSEKRCNYHIETSVPGSQPGEFTLGTIKSYPGETSILVRVVSTNYNQHAMVFFKGVSQNREIFEITLYGRTKELTSELKENFIRFSKSLGLPENHIVFPVPIDQCIDGSAWSHPQFEK
notes: biotinylated by NHS chemistry for capture in SPR
B2: lipocalin mutein SEQ ID NO: 8 (designed binder)
chain: QDSTSDLIPAPPLSKVPLQQNFQDNQFHGKWYVVGWAGNTLRREDKNPTKMQATIYELKEDKSYNVTWVYFSEKKCNYHIETSVPGSQPGEFTLGTIKSYPGETSILVRVVSTNYNQHAMVFFKGVSQNREIFEITLYGRTKELTSELKENFIRFSKSLGLPENHIVFPVPIDQCIDGSAWSHPQFEK
notes: as for B1
B3: lipocalin mutein SEQ ID NO: 28 (designed binder)
chain: QDSTSDLIPAPPLSKVPLQQNFQDNQFHGKWYVVGWAGNTLLREDKDPIKMQAIIYELKEDRSYNVTWVYFSEKKCNYHIETFVPGSQPGEFTLGTIKSYPGETPILVRVMSTNYNQHAMVFFKGVNQNREIFEIILYGRTKELTNELKENFIRFSKSLGLPENHIVFPVPIDQCIDGSAWSHPQFEK
notes: as for B1
B4: cysteine-free lipocalin mutein SEQ ID NO: 31 (designed binder)
chain: QDSTSDLIPAPPLSKVPLQQNFQDNQFQGKWYVVGWAGNTLLREDKDPIKMQAMIYELKEDKSYNVTWVYFADKKRNYHIETFVPGSQPGEFTLGTIKSYPGETPILVRVVSTNYNQHAMVFFKGVNQNREIFEIVLYGRTKELTNELKENFIRFSKSLGLPENHIVFPVPIDQFIDGSAWSHPQFEK
notes: as for B1
B5: lipocalin mutein SEQ ID NO: 10 (designed binder)
chain: QDSTSDLIPAPPLSKVPLQQNFQDNQFHGKWYVVGWAGNTLLREDKNPTKMQATIYELKEDKSYNATWVYLSEKKCNYHIETSVPGSQPGEFTLGTTKSYPGETPILVRVVSTNYNQHAMVFFKGVSQNREIFEITLYGRTKELTSELKENFIRFSKSLGLPENHIVFPVPIDQCIDGSAWSHPQFEK
notes: as for B1
B6: cysteine-free lipocalin mutein SEQ ID NO: 33 (designed binder)
chain: QDSTSDLIPAPPLSKVPLQQNFQDNQFQGKWYVVGWAGNTLLREDKDPIKMQAMIYELKEDKSYNVTWVYFADKKLNYHIETFVPGSQPGEFTLGTIKSYPGETPILVRVVSTNYNQHAMVFFKGVNQNREIFEIVLYGRTKELTNELKENFIRFSKSLGLPENHIVFPVPIDQWIDGSAWSHPQFEK
notes: as for B1

What was measured:
[1] = target: T1, rat alpha CGRP (SEQ ID NO: 82); test: SPR, 37 C, mutein captured, CGRP analyte
Protocol: (§1) The Biotin CAPture Kit (GE Healthcare) was used to immobilize biotinylated lipocalin muteins to a chip surface. Muteins were biotinylated using standard NHS chemistry. Undiluted Biotin CAPture Reagent (streptavidin conjugated with ss-DNA oligo) was captured on a Sensor Chip CAP with the pre-immobilized complementary ss-DNA oligo. Thereafter, biotinylated muteins at 1 μg/mL were applied for 300 s at a flow rate of 5 μL/min.
(§2) CGRP species were applied in three concentrations of 30 nM, 3 nM and 0.3 nM at a flow rate of 30 μL/min or in a single concentration of 25 nM per cycle as shown in FIG. 2. The dilutions were injected with association times of 180 s and dissociation times of 5400 sec to obtain ka and kd information. Regeneration of the chip surface was achieved by injecting 6 M Guanidinium-HCl+0.25 M NaOH (120 s) with a flow rate of 10 μL/min. Injection of regeneration solutions was followed by an extra wash step with HBS-EP+(1×; BR-1006-69; GE Healthcare) running buffer and a stabilization period of 120 s.
(§3) The data were double-referenced by subtraction of the corresponding signals measured for the control channel (loaded with Biotin CAPture reagent only) and by subtraction of buffer injections from the binding responses. Association rate constant ka and dissociation rate constant kd for the binding reaction were determined using Biacore T200 Evaluation Software V2.0 for data processing and kinetic fitting. The data were globally fit with 1:1 binding model.

[2] = target: T2, human alpha CGRP (SEQ ID NO: 80); test: SPR, 37 C, mutein captured, CGRP analyte
Protocol: as §1, §2, §3

[3] = target: T3, rat beta CGRP (SEQ ID NO: 83); test: SPR, 37 C, mutein captured, CGRP analyte
Protocol: as §1, §2, §3

[4] = target: T4, human beta CGRP (SEQ ID NO: 81); test: SPR, 37 C, mutein captured, CGRP analyte
Protocol: as §1, §2, §3

[5] = target: T2, human alpha CGRP (SEQ ID NO: 80); test: SPR as in Example 5
Protocol: as §1, §2

[6] = target: T4, human beta CGRP (SEQ ID NO: 81); test: SPR as in Example 5
Protocol: as §1, §2

[7] = target: T2, human alpha CGRP (SEQ ID NO: 80); test: cell-based or functional assay
[8] = target: T4, human beta CGRP (SEQ ID NO: 81); test: cell-based or functional assay

| Binder | Kd [1] [nM] | koff [1] [s⁻¹] | kon [1] [M⁻¹ s⁻¹] | Kd [2] [nM] | koff [2] [s⁻¹] | kon [2] [M⁻¹ s⁻¹] | Kd [3] [nM] | koff [3] [s⁻¹] | kon [3] [M⁻¹ s⁻¹] | Kd [4] [nM] | koff [4] [s⁻¹] | kon [4] [M⁻¹ s⁻¹] | Kd [5] [nM] | Kd [6] [nM] | cAMP assay IC50, SK-N-MC cells [7] [nM] | cAMP assay IC50, SK-N-MC cells [8] [nM] |
| --- | --- | --- | --- | --- | --- | --- | --- | --- | --- | --- | --- | --- | --- | --- | --- | --- |
| B1 | 0.3 | 0.000313 | 1.04e+06 | 0.067 | 0.000249 | 3.74e+06 | 0.091 | 0.000276 | 3.04e+06 | 0.036 | 0.000188 | 5.21e+06 | – | – | – | – |
| B2 | 1.14 | 0.000837 | 734000 | 0.288 | 0.000595 | 2.07e+06 | 0.349 | 0.000636 | 1.82e+06 | 0.143 | 0.000529 | 3.7e+06 | – | – | – | – |
| B3 | 0.049 | 6.88e-05 | 1.41e+06 | 0.031 | 4.99e-05 | 1.59e+06 | 0.032 | 5.48e-05 | 1.72e+06 | 0.014 | 3.41e-05 | 2.52e+06 | – | – | – | – |
| B4 | – | – | – | – | – | – | – | – | – | – | – | – | 0.033 | 0.043 | 0.19 | 1.64 |
| B5 | 0.55 | 0.000307 | 559000 | 0.163 | 0.000205 | 1.26e+06 | 0.206 | 0.000224 | 1.08e+06 | 0.076 | 0.000162 | 2.14e+06 | – | – | – | – |
| B6 | – | – | – | – | – | – | – | – | – | – | – | – | 0.034 | 0.018 | 0.14 | 0.24 |
